Laboratory results as given in article doi:10.1101/2025.06.11.659212 (bioRxiv, 2025).

Target: the molecule itself
Assay: cryo-EM structure

B1: cyanide hydratase from Gloeocercospora sorghi (enzyme, UniProt P32964 1-368, looked up)
chain: MPINKYKAAVVTSEPVWENLEGGVVKTIEFINEAGKAGCKLIAFPEVWIPGYPYWMWKVNYLQSLPMLKAYRENSIAMDSSEMRRIRAAARDNQIYVSIGVSEIDHATLYLTQVLISPLGDVINHRRKIKPTHVEKLVYGDGSGDSFEPVTQTEIGRLGQLNCWENMNPFLKSLAVARGEQIHVAAWPVYPDLSKQVHPDPATNYADPASDLVTPAYAIETGTWVLAPFQRISVEGLKRHTPPGVEPETDATPYNGHARIFRPDGSLYAKPAVDFDGLMYVDIDLNESHLTKALADFAGHYMRPDLIRLLVDTRRKELVTEVGGGDNGGIQSYSTMARLGLDRPLEEEDYRQGTDAGETEKASSNGHA
  stoichiometry N: 24 monomers

B2: cyanide dihydratase from Bacillus safensis strain PER-URP-08 (enzyme, UniProt P0DXY3 1-330, looked up)
chain: MTSIYPKFRAAAVQAAPVYLNLEATVEKSCELIDEAASNGAKLVAFPEAFLPGYPWFAFIGHPEYTRKFYHELYKNAVEIPSLAIQKISEAAKRNETYVCISCSEKDGGSLYLAQLWFNPNGDLIGKHRKMRASVAERLIWGDGSGSMMPVFQTDIGNLGGLMCWEHQVPLDLMAMNAQNEQVHVASWPGYFDDEISSRYYAIATQTFVLMTSSIYTEEMKEMICLTQEQRDYFETFKSGHTCIYGPDGEPISDMVPAETEGIAYAEIDVERVIDYKYYIDPAGHYSNQSLSMNFNQQPTPVVKQLYHQKNEVFTYEDIQYQHGILEEKV
  stoichiometry N: 18 monomers
